From publication PMC5646240, “Norovirus Escape from Broadly Neutralizing Antibodies Is Limited to Allostery-Like Mechanisms” (mSphere, 2017)

What was measured:
[1] = biological target: the molecule itself; test: cryo-EM structure; 2D3 Fab added to purified infectious MNV1 virions; image reconstruction at 8.7 Å (FSC 0.143) / 9.9 Å (FSC 0.5), fitted with atomic models of the P domain dimer and a modelled Fab
[2] = biological target: murine norovirus S99 (Berlin/06/06/DE) virions, capsid protein (murine norovirus (strain S99))
[3] = biological target: T1, human norovirus GII.12 Hiro virus-like particles (Human norovirus GII.12 Hiro, UniProt Q54AD6, strain); test: ELISA; data not shown; HuNoV VLPs (1 µg of each VLP per well in 100 µl PBS, 24 h at 4°C) tested with the MAbs; details: both partners purified
T1 construct: capsid protein of human norovirus GII.12 Hiro, as virus-like particles; also called Hiro [GII.12]; source: provided by Grant Hansman (University of Heidelberg); expressed and purified as previously described (62)

[4] = biological target: T2, human norovirus genogroup I Norwalk virus (NV) virus-like particles (Human norovirus GI, strain of AY502016 …, UniProt Q6EAV2); test: as above; details: both partners purified
T2 construct: capsid protein of human norovirus genogroup I strain Norwalk virus, as virus-like particles; also called Norwalk virus VLP; source: provided by Grant Hansman (University of Heidelberg); expressed and purified as previously described (62)

[5] = biological target: T3, human norovirus GII.4 Sydney (2012-Sydney) virus-like particles (Human norovirus GII.4 …, UniProt K4LM89, strain); test: as above; details: both partners purified
T3 construct: capsid protein of human norovirus GII.4 Sydney (2012), as virus-like particles; also called 2012-Sydney [GII.4]; source: provided by Grant Hansman (University of Heidelberg); expressed and purified as previously described (62)

[6] = biological target: T4, human norovirus GII.10 Vietnam026 virus-like particles (Human norovirus GII.10 Vietnam026, UniProt Q5F4T5, strain); test: as above; details: both partners purified
T4 construct: capsid protein of human norovirus GII.10 Vietnam026, as virus-like particles; also called Vietnam026 [GII.10]; source: provided by Grant Hansman (University of Heidelberg); expressed and purified as previously described (62)

[7] = biological target: T5, human norovirus GII.4 Saga (2006-Saga) virus-like particles (Norovirus Hu/GII-4/Saga1/2006/JP …, UniProt B5BTR4, strain); test: as above; details: both partners purified
T5 construct: capsid protein of human norovirus GII.4 Saga (2006), as virus-like particles; also called 2006-Saga [GII.4]; source: provided by Grant Hansman (University of Heidelberg); expressed and purified as previously described (62)

[8] = biological target: murine norovirus WU11 (GV/WU11/2005/USA) virions, capsid protein (Murine norovirus GV/WU11/2005/USA, UniProt A7YJZ2, strain); test: cell-based or functional assay
[9] = biological target: murine norovirus MNV4 virions, capsid protein (Murine norovirus, strain MNV4, UniProt Q38J98, strain); test: cell-based or functional assay
[10] = biological target: murine norovirus MNV3 virions, capsid protein (Murine norovirus, strain MNV3, UniProt Q38JA1, strain); test: cell-based or functional assay
[11] = biological target: murine norovirus WU20 (GV/WU20/2005/USA) virions, capsid protein (Murine norovirus GV/WU20/2005/USA, UniProt A7YJZ8, strain); test: cell-based or functional assay
[12] = biological target: murine norovirus CR6 (GV/CR6/2005/USA) virions, capsid protein (Murine norovirus GV/CR6/2005/USA, UniProt A7YK31, strain); test: cell-based or functional assay
[13] = biological target: murine norovirus MNV1.CW3 (GV/MNV1/2002/USA) virions, capsid protein (murine norovirus (MNV1.CW3), UniProt Q80J94); test: cell-based or functional assay
[14] = biological target: murine norovirus CR7 (GV/CR7/2005/USA) virions, capsid protein (Murine norovirus GV/CR7/2005/USA, UniProt A7YK34, strain); test: cell-based or functional assay
[15] = biological target: murine norovirus CR3 (GV/CR3/2005/USA) virions, capsid protein (Murine norovirus GV/CR3/2005/USA, UniProt A7YK22, strain); test: cell-based or functional assay
[16] = biological target: murine norovirus CR1 (GV/CR1/2005/USA) virions, capsid protein (Murine norovirus GV/CR1/2005/USA, UniProt A7YK19, strain); test: cell-based or functional assay

B1: murine norovirus MNV1.CW3 (GV/MNV1/2002/USA) virions, capsid protein (natural protein)
chain: MRMSDGAAPKANGSEASGQDLVPAAVEQAVPIQPVAGAALAAPAAGQINQIDPWIFQNFVQCPLGEFSISPRNTPGEILFDLALGPGLNPYLAHLSAMYTGWVGNMEVQLVLAGNAFTAGKVVVALVPPYFPKGSLTTAQITCFPHVMCDVRTLEPIQLPLLDVRRVLWHATQDQEESMRLVCMLYTPLRTNSPGDESFVVSGRLLSKPAADFNFVYLTPPIERTIYRMVDLPVIQPRLCTHARWPAPVYGLLVDPSLPSNPQWQNGRVHVDGTLLGTTPISGSWVSCFAAEAAYKFQSGTGEVATFTLIEQDGSAYVPGDRAAPLGYPDFSGQLEIEVQTETTKTGDKLKVTTFEMILGPTTNADQAPYQGRVFASVTAAASLDLVDGRVRAVPRSIYGFQDTIPEYNDGLLVPLAPPIGPFLPGEVLLRFRTYMRQIDTADAAAEAIDCALPQEFVSWFASNAFTVQSEALLLRYRNTLTGQLLFECKLYNEGYIALSYSGSGPLTFPTDGIFEVVSWVPRLYQLASVGSLATGRMLKQ
notes: capsid protein (VP1) of murine norovirus 1, strain MNV1.CW3, in whole infectious virions; S domain and P domain; Whole virions with a T=3 capsid; the antigen of the antibodies is the capsid protein; The UniProt entry recalled is of MNV1, not checked for the CW3 clone; also called MVV1; source: RAW 264.7 cells, infected; concentrated virus stock (ELISA); purified virions (ultracentrifugation, …)
- binding result [1]: binds

B2: monoclonal antibody 2D3.7 (IgA) (antibody, V domains shown)
VH: VQLQESGPGLVAPSQSLSITCTVSGFSLTSYGVHWIRQPSGKGLEWLGVIWPGGSTNYNSALMSRLSISKDNSQSQVVLKMNSLQTDDSAMYYCARGRVAAWFAYWGQGTLVTVSA
VL: DIVMTQSQKFMSTSVGDRVSVTCTASQNVGTSVAWYLQRPGQSPEALIYSASYRNSGVPDRFTGSGSGTDFTLTISNVQSEDLADYFCQQYNNYPFTFGSGTKLEIK
notes: VH before the CDR3 loop; heavy chain CDR3 loop as printed; nearly identical to the light chain variable domain of PDB 2AEQ; IgA; also called MAb 2D3; IgA MAb 2D3
- plaque neutralization assay: 5 × 10^4 PFU with 0 to 1,000 ng MAb, 30 min at 37°C; virus titer relative to no antibody [2]: > 1 log
- binding result [3]: no binding
- binding result [4]: no binding
- binding result [5]: no binding
- binding result [6]: no binding
- binding result [7]: no binding
- plaque neutralization assay: 5 × 10^4 PFU with 0 to 1,000 ng MAb, 30 min at 37°C; virus titer relative to no antibody [8]: ≥ 1 log
- plaque neutralization assay: 5 × 10^4 PFU with 0 to 1,000 ng MAb, 30 min at 37°C; virus titer relative to no antibody [9]: ≥ 1 log
- plaque neutralization assay: 5 × 10^4 PFU with 0 to 1,000 ng MAb, 30 min at 37°C; virus titer relative to no antibody [10]: ≥ 1 log
- plaque neutralization assay: 5 × 10^4 PFU with 0 to 1,000 ng MAb, 30 min at 37°C; virus titer relative to no antibody [11]: ≥ 1 log
- plaque neutralization assay: 5 × 10^4 PFU with 0 to 1,000 ng MAb, 30 min at 37°C; virus titer relative to no antibody [12]: ≥ 1 log
- plaque neutralization assay: 5 × 10^4 PFU with 0 to 1,000 ng MAb, 30 min at 37°C; virus titer relative to no antibody [13]: ≥ 1 log
- plaque neutralization assay: 5 × 10^4 PFU with 0 to 1,000 ng MAb, 30 min at 37°C; virus titer relative to no antibody [14]: ≥ 1 log
- plaque neutralization assay: 5 × 10^4 PFU with 0 to 1,000 ng MAb, 30 min at 37°C; virus titer relative to no antibody [15]: ≥ 1 log
- plaque neutralization assay: 5 × 10^4 PFU with 0 to 1,000 ng MAb, 30 min at 37°C; virus titer relative to no antibody [16]: ≥ 1 log
